{"source": "paper doi:10.1101/2023.10.26.564194", "about": "(bioRxiv, 2023)", "key": {"[1]": {"target": "T1, recombinant His-tagged NRF2, full length (UniProt Q16236 1-605)", "T1 sequence": "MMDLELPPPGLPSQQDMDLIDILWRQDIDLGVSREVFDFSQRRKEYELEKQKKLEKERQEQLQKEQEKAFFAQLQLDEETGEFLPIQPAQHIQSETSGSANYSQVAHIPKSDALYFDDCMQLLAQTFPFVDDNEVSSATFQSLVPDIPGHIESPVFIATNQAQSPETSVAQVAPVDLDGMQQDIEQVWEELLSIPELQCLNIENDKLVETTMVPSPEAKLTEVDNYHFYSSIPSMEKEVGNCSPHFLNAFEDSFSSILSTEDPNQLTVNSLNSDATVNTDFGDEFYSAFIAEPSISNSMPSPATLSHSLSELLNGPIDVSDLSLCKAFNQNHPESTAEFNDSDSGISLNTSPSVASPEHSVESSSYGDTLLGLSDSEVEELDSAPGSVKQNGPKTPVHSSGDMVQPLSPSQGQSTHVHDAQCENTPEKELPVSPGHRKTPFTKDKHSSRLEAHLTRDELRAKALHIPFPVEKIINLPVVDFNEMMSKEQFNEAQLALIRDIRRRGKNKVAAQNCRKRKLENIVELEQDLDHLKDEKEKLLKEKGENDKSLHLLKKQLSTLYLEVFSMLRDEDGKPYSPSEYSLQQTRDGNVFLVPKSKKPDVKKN", "assay": "MST"}, "[2]": {"target": "T2, recombinant His-Tag NRF2 truncation mutant Δ205-400 amino acids (Neh6/7 domains deleted) (UniProt Q16236 1-605, Δ205-400)", "T2 sequence": "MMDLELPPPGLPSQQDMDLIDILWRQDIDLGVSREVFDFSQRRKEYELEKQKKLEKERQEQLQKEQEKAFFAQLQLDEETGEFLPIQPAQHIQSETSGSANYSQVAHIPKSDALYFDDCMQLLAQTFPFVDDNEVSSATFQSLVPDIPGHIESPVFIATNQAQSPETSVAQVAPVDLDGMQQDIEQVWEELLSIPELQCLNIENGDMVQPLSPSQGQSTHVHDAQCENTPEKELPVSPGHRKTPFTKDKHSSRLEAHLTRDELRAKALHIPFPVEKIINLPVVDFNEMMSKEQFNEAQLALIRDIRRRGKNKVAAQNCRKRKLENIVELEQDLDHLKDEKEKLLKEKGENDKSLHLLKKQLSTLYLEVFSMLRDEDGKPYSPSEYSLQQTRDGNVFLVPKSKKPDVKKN", "assay": "pull-down"}}, "data": [{"binder": "recombinant αB-crystallin (natural protein) MDIAIHHPWIRRPFFPFHSPSRLFDQFFGEHLLESDLFPTSTSLSPFYLRPPSFLRAPSWFDTGLSEMRLEKDRFSVNLDVKHFSPEELKVKVLGDVIEVHGKHEERQDEHGFISREFHRKYRIPADVDPLTITSSLSSDGVLTVNGPRKQVSGPERTIPITREEKPAVTAAPKK", "values": [{"measurement": "Kd", "setting": "[1]", "result": "859 ± 70.1", "unit": "nM"}, {"measurement": "binding result", "setting": "[2]", "result": "binds"}]}]}
